# Assay results from the supplement of paper PMC12667976.
# ± gives the standard error.
# B1: library; numbered along this chain (parent)
# chain: MATDAALRRLLRLHRTEIAVAVDSAFPLLHALADHDVVPEDKFQETLHLKEKEGCPQAFHALLSWLLTQDSTAILDFWRVLFKDYNLERYGRLQPILDSFPKDVDLSQPRKGRKPPAVPKALVPPPRLPTKRKASEEARAAAPAALTPRGTASPGSQLKAKPPKKPESSAEQQRLPLGNGIQTMSASVQRAVAMSSGDVPGARGAVEGILIQQVFESGGSKKCIQVGGEFYTPSKFEDSGSGKNKARSSSGPKPLVRAKGAQGAAPGGGEARLGQQGSVPAPLALPSDPQLHQKNEDECAVCRDGGELICCDGCPRAFHLACLSPPLREIPSGTWRCSSCLQATVQEVQPRAEEPRPQEPPVETPLPPGLRSAGEEVRGPPGEPLAGMDTTLVYKHLPAPPSAAPLPGLDSSALHPLLCVGPEGQQNLAPGARCGVCGDGTDVLRCTHCAAAFHWRCHFPAGTSRPGTGLRCRSCSGDVTPAPVEGVLAPSPARLAPGPAKDDTASHEPALHRDDLESLLSEHTFDGILQWAIQSMARPAAPFPS
# Variants of: B1
# Experiment: AIRE transcriptional activation functional score (insulin promoter-GFP; nonsense median 0, synonymous median 1) (normalised score); higher = higher AIRE activity (more reporter activation)
# Details: with insulin promoter-GFP reporter in HEK293
# How it was run: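 The functional score compares variant enrichment between select and non-select populations after subtracting wild type. To obtain it, codon-optimized AIRE NNN-codon libraries spanning three regions were placed by Bxb1 recombinase into Flp-In T-REx HEK293 landing-pad cells with an insulin core promoter-GFP reporter. Cells with the top 10% GFP and unselected integrants were tile-sequenced after mCherry+, BFP− integrants had been sorted at day 7 and grown 7 more days. Only variants with 10 counts per million in non-select were kept, rescaled to nonsense median 0 and synonymous median 1, and averaged across biological replicates.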
row,Variant,AIRE transcriptional activation functional score
1,L520T,0.23 ± 0.07
2,L520G,0.375 ± 0.15
3,L520C,0.467 ± 0.064
4,N244Q,1.19 ± 0.12
5,P95G,1.01 ± 0.66
6,V226M,0.67 ± 0.12
7,E17V,0.0123 ± 0.26
8,Q189G,0.415 ± 0.35
9,R494A,0.321 ± 0.24
10,D439V,0.869 ± 0.19
11,R336M,0.49 ± 0.24
12,I18N,-0.247 ± 0.45
13,K159I,1.4 ± 0.24
14,D389C,0.869 ± 0.051
15,C449L,0.195 ± 0.21
16,I211P,-0.156 ± 0.096
17,A461M,1.27 ± 0.037
18,P381N,1.07 ± 0.078
19,E137W,1.59 ± 0.4
20,P116K,0.772 ± 0.26
21,P116H,1.15 ± 0.41

row,Variant,AIRE transcriptional activation functional score
1,A144R,0.836 ± 0.55
2,V20S,-0.474 ± 0.42
3,R303Y,0.774 ± 0.15
4,R303P,1.09 ± 0.099
5,Q425A,0.368 ± 0.13
6,L370I,1.25 ± 0.1
7,G440P,1.25 ± 0.12
8,F230Y,0.502 ± 0.27
9,L11C,-0.106 ± 0.11
10,L28W,-2.53 ± 0.92
11,P154K,-1.06 ± 0.26
12,E508S,0.0376 ± 0.27
13,E508T,0.822 ± 0.21
14,K259I,0.551 ± 0.072
15,K259L,0.941 ± 0.35
16,D103C,1.14 ± 0.27
17,G268W,1.62 ± 0.06
18,G268F,1.38 ± 0.18
19,D23I,0.125 ± 0.62
20,Q108N,0.625 ± 0.28
21,A399G,0.994 ± 0.14

row,Variant,AIRE transcriptional activation functional score
1,L10W,-0.175 ± 0.14
2,L10S,-0.035 ± 0.35
3,I330T,0.637 ± 0.12
4,I330L,0.906 ± 0.38
5,I330A,0.828 ± 0.26
6,H319V,0.662 ± 0.14
7,Q57W,-0.29 ± 0.23
8,A58M,-0.0857 ± 0.12
9,A281C,0.996 ± 0.17
10,A281I,0.957 ± 0.46
11,S412Q,0.66 ± 0.076
12,S412F,1.37 ± 0.16
13,V214R,0.66 ± 0.11
14,T3V,0.465 ± 0.14
15,R110V,1.21 ± 0.39
16,R110D,2.5 ± 0.21
17,R110F,0.927 ± 0.37
18,G150K,1.53 ± 0.12
19,G150C,1.38 ± 0.11
20,D515F,0.156 ± 0.1
21,G382H,1.29 ± 0.5

row,Variant,AIRE transcriptional activation functional score
1,G382N,0.95 ± 0.35
2,F43M,0.757 ± 0.1
3,F77K,0.21 ± 0.52
4,E383A,1.32 ± 0.086
5,E383R,1.05 ± 0.17
6,Q342I,1 ± 0.22
7,Q342N,0.925 ± 0.32
8,D34P,0.782 ± 0.41
9,F215V,0.289 ± 0.41
10,L63H,-0.128 ± 0.63
11,G240H,0.0803 ± 0.12
12,T46S,0.455 ± 0.51
13,T46R,0.389 ± 0.22
14,A500R,0.915 ± 0.16
15,D36R,0.583 ± 0.84
16,S474A,0.936 ± 0.28
17,S474V,0.167 ± 0.17
18,S187W,0.0947 ± 0.081
19,S187I,0.599 ± 0.29
20,S187M,0.503 ± 0.045
21,S339Y,1.09 ± 0.096
